Reference: patent US20120208867, “HMGB1 BINDING NUCLEIC ACID MOLECULE AND APPLICATIONS THEREOF” (published 2012)

B1: 2'F-CU-#06 (ssRNA)
RNA: GGGACGCUCACGUACGCUCAUACACUGCACGCUCCGCUUUGAACAUCAAUGGAGGCCCUGUCAGUGCCUGGACGUGCAGU
modifications: 2'-F on all C and U
B2: 2'F-U-#06 (ssRNA)
RNA: GGGACGCUCACGUACGCUCAUACACUGCACGCUCCGCUUUGAACAUCAAUGGAGGCCCUGUCAGUGCCUGGACGUGCAGU
modifications: 2'-F on all U
B3: 2'F-C-#06 (ssRNA)
RNA: GGGACGCUCACGUACGCUCAUACACUGCACGCUCCGCUUUGAACAUCAAUGGAGGCCCUGUCAGUGCCUGGACGUGCAGU
modifications: 2'-F on all C
B4: 2'F-CU-#80 (ssRNA)
RNA: GGGACGCUCACGUACGCUCACAUCUGAAUUUAAGCCACGUAGAACCAGGCCCUCCACGCGUCAGUGCCUGGACGUGCAGU
modifications: 2'-F on all C and U
B5: 2'F-U-#80 (ssRNA)
RNA: GGGACGCUCACGUACGCUCACAUCUGAAUUUAAGCCACGUAGAACCAGGCCCUCCACGCGUCAGUGCCUGGACGUGCAGU
modifications: 2'-F on all U
B6: 2'F-C-#80 (ssRNA)
RNA: GGGACGCUCACGUACGCUCACAUCUGAAUUUAAGCCACGUAGAACCAGGCCCUCCACGCGUCAGUGCCUGGACGUGCAGU
modifications: 2'-F on all C

Each binder was assayed against T1, His-tagged HMGB1 (UniProt P09429 P09429:1-215) (assay: SPR; 160 nM protein). Conditions: tags: N-terminal His-tag.
T1 sequence (P09429 whole entry, one chain of several): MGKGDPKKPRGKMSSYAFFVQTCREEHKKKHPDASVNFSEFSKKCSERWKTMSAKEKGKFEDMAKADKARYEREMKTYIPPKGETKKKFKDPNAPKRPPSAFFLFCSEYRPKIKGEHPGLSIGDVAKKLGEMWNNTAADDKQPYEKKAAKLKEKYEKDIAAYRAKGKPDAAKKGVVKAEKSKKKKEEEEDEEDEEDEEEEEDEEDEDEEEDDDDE
Procedure: (§1) The ability of each of the aforementioned RNA aptamers to bind to HMGB1 in which His-tag was added to the N-terminus (His-tag-added HMGB1) was examined. For the analysis of the aforementioned binding ability, a BIACORE (registered trademark) X (manufactured by GE Healthcare) was used according to its instruction manual.
(§2) First, a sensor chip (trade name: Sensor Chip SA, manufactured by GE Heathcare) specially made for a BIACORE was set on the aforementioned BLACORE (registered trademark) X. Biotinylate deoxythymidine (5 μmol/L) was injected into the flow cell 2 of the aforementioned sensor chip using a running buffer and subjected to binding until the signal intensity (RU: resonance unit) reached about 1000 RU. For the aforementioned biotinylated deoxythymidine, 20-base-long deoxythymidine in which the 5′ end was biotinylated was used. Then, 10 μg/mL of an RNA aptamer was injected at a flow rate of 20 μL/min for 1 min into the aforementioned flow cells 1 and 2 of the aforementioned chip using a running buffer and subjected to binding until the signal intensity reached about 1000 RU. Next, […] for 30 sec using the aforementioned running buffer, and under the same conditions the aforementioned running buffer was allowed to flow continuously for washing. Simultaneously with the injection of the aforementioned His-tag-added HMGB1 and washing with the aforementioned running buffer, signal intensity was measured. The aforementioned running buffer was composed of 20 mmol/L of HEPES, 500 mmol/L of NaCl, 0.1 mmol/L of MgCl₂, and 0.1% Triton X-100 (registered trademark), with the pH thereof being 7.2. As a blocking agent for suppressing nonspecific binding, tRNA was used in a concentration of 1 mg/mL. In a comparative example, signal intensity was measured in the same manner except that the aforementioned comparative example RNA was used in place of the aforementioned example RNA aptamers.

Binding result, binds:
GGGUAAGACACGUAGACCAGUGUGCCUGGACGUGCAGU (ssRNA) [R8c6_1-25-S6C]
GGGUAAGACACGUAGCACCAGUGUGCCUGGACGUGCAGU (ssRNA) [R8c6_1-25-S6]
GGGUAAGACACGUAGCACCAGUGUGCCUGGAGUGCAGU (ssRNA) [R8c6_1-25-S6C2]
GGGUAAGACACGUAGCACCAGUGUGCCUGGACGUGCGU (ssRNA) [R8c6_1-25-S6A3]
GGGAGACACGUAGCACCAGUGUGCCUGGACGUGCAGU (ssRNA) [R8c6_1-27-S6]
GGGUAAGCACGUAGCACCAGUGUGCCUGGACGUGCAGU (ssRNA) [R8c6_1-25-S6A]
GGGAAGACACGUAGCACCAGUGUGCCUGGACGUGCAGU (ssRNA) [R8c6_1-26-S6]
GGGUAAGACACGUAGCACCAGUGCCUGGACGUGCAGU (ssRNA) [R8c6_1-25-S8]
GGGUAAGACACGUAGCACCGUGUGCCGGACGUGCAGU (ssRNA) [R8c6_1-25-S6A2]

These binders were tested against T1, His-tagged HMGB1 (assay: SPR; 150 nM protein). Conditions: tags: N-terminal His-tag.
Procedure: as §1, §2

Binding result, binds:
GGGCAGUAAGACACGUAGCACCAGUGUGCCUGGACGUGCAGU (ssRNA) [R8c6_1-22-S6]
GGGCAGUAAGACACGUAGCACCAGUGUGCCUGGACGUGCAGU (ssRNA, 2'-F on all C and U) [2'F-R8c6_1-22-S6]
GGGAGUAAGACACGUAGCACCAGUGUGCCUGGACGUGCAGU (ssRNA) [R8c6_1-23-S6]
GGGAGUAAGACACGUAGCACCAGUGUGCCUGGACGUGCAGU (ssRNA, 2'-F on all C and U) [2'F-R8c6_1-23-S6]
GGGGUAAGACACGUAGCACCAGUGUGCCUGGACGUGCAGU (ssRNA) [R8c6_1-24-S6]
GGGGUAAGACACGUAGCACCAGUGUGCCUGGACGUGCAGU (ssRNA, 2'-F on all C and U) [2'F-R8c6_1-24-S6]
GGGUAAGACACGUAGACCAGUGUGCCUGGACGUGCAGU (ssRNA, 2'-F on all C and U) [2'F-R8c6_1-25-S6C]
GGGUAAGACACGUAGCACCAGUGUGCCUGGACGUGCAGU (ssRNA, 2'-F on all C and U) [2'F-R8c6_1-25-S6]
GGGCAGUAAGACACGUAGCACCAGUGCCUGGACGUGCAGU (ssRNA) [R8c6_1-22-S8]
GGGCAGUAAGACACGUAGCACCAGUGCCUGGACGUGCAGU (ssRNA, 2'-F on all C and U) [2'F-R8c6_1-22-S8]
GGGUAAGACACGUAGCACCAGUGUGCCUGGAGUGCAGU (ssRNA, 2'-F on all C and U) [2'F-R8c6_1-25-S6C2]
GGGAGUAAGACACGUAGCACCAGUGCCUGGACGUGCAGU (ssRNA) [R8c6_1-23-S8]
GGGAGUAAGACACGUAGCACCAGUGCCUGGACGUGCAGU (ssRNA, 2'-F on all C and U) [2'F-R8c6_1-23-S8]
GGGAGACACGUAGCACCAGUGUGCCUGGACGUGCAGU (ssRNA, 2'-F on all C and U) [2'F-R8c6_1-27-S6]
GGGACAGUAAGACACGUAGCACCAGUGCCUGGACGUGCAGU (ssRNA) [R8c6_1-21-S8]
GGGGUAAGACACGUAGCACCAGUGCCUGGACGUGCAGU (ssRNA) [R8c6_1-24-S8]
GGGGUAAGACACGUAGCACCAGUGCCUGGACGUGCAGU (ssRNA, 2'-F on all C and U) [2'F-R8c6_1-24-S8]
GGGUAAGCACGUAGCACCAGUGUGCCUGGACGUGCAGU (ssRNA, 2'-F on all C and U) [2'F-R8c6_1-25-S6A]
GGGAAGACACGUAGCACCAGUGUGCCUGGACGUGCAGU (ssRNA, 2'-F on all C and U) [2'F-R8c6_1-26-S6]
GGGUAAGACACGUAGAACCAGUGACUGGAAGUGCAGU (ssRNA) [R8c6_1-25-S8CA]
GGGUAAGACACGUAGCACCAGUGCCUGGACGUGCAGU (ssRNA, 2'-F on all C and U) [2'F-R8c6_1-25-S8]
GGGUAAGACACGUAGAACCAGUGACUGGAAGUGCAGU (ssRNA, 2'-F on all C and U) [2'F-R8c6_1-25-S8CA]
GGGACAGUAAGACACGUAGCACCAGUGUGCCUGGACGUGCAGU (ssRNA) [R8c6_1-21-S6]
GGGUAAGACACGUAGCACCGUGUGCCGGACGUGCAGU (ssRNA, 2'-F on all C and U) [2'F-R8c6_1-25-S6A2]

The binders below were run against T1, His-tagged HMGB1 (assay: SPR; 200 nM protein, 150 mM NaCl; above unmodified 40N). Conditions: tags: N-terminal His-tag.
Procedure: First, a sensor chip (trade name: Sensor Chip SA, manufactured by GE Heathcare) specially made for a BIACORE was set on the aforementioned BLACORE (registered trademark) X. Biotinylate deoxythymidine (5 μmol/L) was injected into the flow cell 2 of the aforementioned sensor chip using a running buffer and subjected to binding until the signal intensity (RU: resonance unit) reached about 1000 RU. For the aforementioned biotinylated deoxythymidine, 20-base-long deoxythymidine in which the 5′ end was biotinylated was used. Then, 10 μg/mL of an RNA aptamer was injected at a flow rate of 20 μL/min for 1 min into the aforementioned flow cells 1 and 2 of the aforementioned chip using a running buffer and subjected to binding until the signal intensity reached about 1000 RU. Next, 675 nmol/L of the aforementioned His-tag-added HMGB1 was injected at a flow rate of 20 μL/min for 30 sec using the aforementioned running buffer, and under the same conditions the aforementioned running buffer was allowed to flow continuously for washing. Simultaneously with the injection of the aforementioned His-tag-added HMGB1 and washing with the aforementioned running buffer, signal intensity was measured. The aforementioned running buffer was composed of 20 mmol/L of HEPES, 500 mmol/L of NaCl, 0.1 mmol/L of MgCl₂, and 0.1% Triton X-100 (registered trademark), with the pH thereof being 7.2. As a blocking agent for suppressing nonspecific binding, tRNA was used in a concentration of 1 mg/mL. In a comparative example, signal intensity was measured in the same manner except that the aforementioned comparative example RNA was used in place of the aforementioned example RNA aptamers.
An analysis of ability to bind to the aforementioned His-tag-added HMGB1 (manufactured by Sigma) was carried out in the same manner as in (2) above of the aforementioned Example 1 except that the aforementioned fluorinated RNA aptamers were used, the concentration of the aforementioned His-tag-added HMGB1 was 200 nmol/L, the concentration of NaCl in the aforementioned running buffer was 150 mmol/L, and the injection time of the aforementioned His-tag-added HMGB1 was 60 seconds. Also, an analysis was carried out in the same manner on unmodified R8c6_{—}1 that was not fluorinated.

Binding result, binds:
B1
B2
B3
B4
B5
B6
